In patent publication US20250388669A1 (published 2025):

T1: B7H3 (UniProt Q5ZPR3 29-466, limits assumed)
T1 sequence (looked up): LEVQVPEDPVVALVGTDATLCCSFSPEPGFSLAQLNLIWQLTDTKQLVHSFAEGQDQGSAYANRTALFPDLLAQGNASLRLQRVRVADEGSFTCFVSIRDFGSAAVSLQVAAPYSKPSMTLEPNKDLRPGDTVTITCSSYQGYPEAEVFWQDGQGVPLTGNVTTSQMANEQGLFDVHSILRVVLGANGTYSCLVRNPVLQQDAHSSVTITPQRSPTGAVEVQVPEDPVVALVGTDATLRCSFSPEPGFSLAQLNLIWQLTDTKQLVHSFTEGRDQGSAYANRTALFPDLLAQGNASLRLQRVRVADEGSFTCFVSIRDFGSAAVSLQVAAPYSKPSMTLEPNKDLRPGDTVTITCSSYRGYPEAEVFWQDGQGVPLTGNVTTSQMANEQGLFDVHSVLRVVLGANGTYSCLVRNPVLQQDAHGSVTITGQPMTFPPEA


Tests used:
CD137 = target: T2, CD137 (human, UniProt Q07011 24-186); test: CD137 binding (method not given)
T2 construct: In the reporter assay it is whole, on GS-H2-huCD137 cells; also called 4-1BB; huCD137

B7H3 = target: T1, B7H3; test: FCM or ELISA, graded
CD40 = CD40 (UniProt P25942 21-193, limits assumed); test: FCM or ELISA, graded
CD40, sequence (P25942 21-193 limits assumed): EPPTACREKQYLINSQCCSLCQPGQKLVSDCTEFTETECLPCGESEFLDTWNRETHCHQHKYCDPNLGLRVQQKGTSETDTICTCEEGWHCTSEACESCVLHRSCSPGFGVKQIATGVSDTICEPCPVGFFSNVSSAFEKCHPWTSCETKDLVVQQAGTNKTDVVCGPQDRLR

Row | EC50 (CD137) | binding result (B7H3) | binding result (CD40) | Binder
1 | 0.08 µg/mL | – | – | Ly1630 (antibody, V domains shown, Parent mAb; also called Anti-CD137 Ly1630; parent anti-CD137 mAb) VH: QVQLVQSGAEVKKPGASVKVSCKASGYTFAGFEMHWVRQAPGQGLEWMGAIDPKTGGTDYNQKFKDRVTMTRDTSISTAYMELSRLRSDDTAVYYCARDLGYFDVWGQGTLVTVSS VL: DIQMTQSPSSLSASVGDRVTITCRASQDIRSNLNWYQQKPGGAVKLLIYYTSRLHSGVPSRFSGSGSGTDYTLTISSLQPEDFATYFCQQSEKLPRTFGGGTKVEIR
2 | – | binds | binds | Ly2424 (bispecific antibody, human IgG1, kappa, B7H3 Fabs x terminal CD40 Fv (TM383)) heavy 1: not shown heavy 2: QVQLVQSGAEVKKPGASVKVSCKASGYTFTSYVMHWVRQKPGQGLEWIGYINPYNEGTESTDKFKGRATMTSDKSTSTVYMELSSLRSEDTAVYYCASIYYGYEGTYFGVWGQGTLVTVSSASTKGPSVFPLAPSSKSTSGGTAALGCLVKDYFPEPVTVSWNSGALTSGVHTFPAVLQSSGLYSLSSVVTVPSSSLGTQTYICNVNHKPSNTKVDKKVEPKSCDKTHTCPPCPAPEAAGPSVFLFPPKPKDTLMISRTPEVTCVVVDVSHEDPEVKFNWYVDGVEVHNAKTKPREEQYNSTYRVVSVLTVLHQDWLNGKEYKCKVSNKALPAPIEKTISKAKGQPREPQVYTLPPSREEMTKNQVSLSCAVKGFYPSDIAVEWESNGQPENNYKTTPPVLDSDGSFFLVSKLTVDKSRWQQGNVFSCSVMHEALHNRFTQKSLSLSPGGGGGSGGGGSGGGGSGGGGSDIQMTQSPSSVSASVGDRVTITCRASQGIYSWLAWYQQKPGKAPNLLIYTASTLQSGVPSRFSGSGSGTDFTLTISSLQPEDFATYYCQQANIFPLTFGGGTKVEIK light: EIVLTQSPATLSLSPGERATLSCRASSSVSYMHWYQQKPGQAPRPWIYATSNLASGIPARFSGSRSGTDYTLTISSLEPEDFAVYYCQQWSSNTLTFGGGTKVEIKRTVAAPSVFIFPPSDEQLKSGTASVVCLLNNFYPREAKVQWKVDNALQSGNSQESVTEQDSKDSTYSLSSTLTLSKADYEKHKVYACEVTHQGLSSPVTKSFNRGEC
3 | – | binds | binds | Ly2428 (bispecific antibody, B7H3 Fabs x central CD40 Fv (TM559)) heavy 1: QVQLVQSGAEVKKPGASVKVSCKASGYTFTSYVMHWVRQKPGQGLEWIGYINPYNEGTESTDKFKGRATMTSDKSTSTVYMELSSLRSEDTAVYYCASIYYGYEGTYFGVWGQGTLVTVSSASTKGPSVFPLAPSSKSTSGGTAALGCLVKDYFPEPVTVSWNSGALTSGVHTFPAVLQSSGLYSLSSVVTVPSSSLGTQTYICNVNHKPSNTKVDKKVEPKSCGGGGSGGGGSGGGGSGGGGSEVQLVESGGGLVQPGGSLRLSCAASGFTFTNYGLHWVRQAPGKGLEWVSSISPSGGVTYYRDSVKGRFTISRDNSKNTLYLQMNSLRAEDTAVYYCAKPFLGWGGANWIAHWGQGTLVTVSSGGGGSDKTHTCPPCPAPEAAGPSVFLFPPKPKDTLMISRTPEVTCVVVDVSHEDPEVKFNWYVDGVEVHNAKTKPREEQYNSTYRVVSVLTVLHQDWLNGKEYKCKVSNKALPAPIEKTISKAKGQPREPQVYTLPPSREEMTKNQVSLWCLVKGFYPSDIAVEWESNGQPENNYKTTPPVLDSDGSFFLYSKLTVDKSRWQQGNVFSCSVMHEALHNHYTQKSLSLSPG heavy 2: QVQLVQSGAEVKKPGASVKVSCKASGYTFTSYVMHWVRQKPGQGLEWIGYINPYNEGTESTDKFKGRATMTSDKSTSTVYMELSSLRSEDTAVYYCASIYYGYEGTYFGVWGQGTLVTVSSASTKGPSVFPLAPSSKSTSGGTAALGCLVKDYFPEPVTVSWNSGALTSGVHTFPAVLQSSGLYSLSSVVTVPSSSLGTQTYICNVNHKPSNTKVDKKVEPKSCGGGGSGGGGSGGGGSGGGGSDIQMTQSPSSLSASVGDRVTITCLASEDISNDLAWYQQKPGKAPKLLIYFVDRLLDGVPSRFSGSGSGTDFTLTISSLQPEDFATYYCQQSYKYPPTFGQGTKLEIKGGGGSDKTHTCPPCPAPEAAGPSVFLFPPKPKDTLMISRTPEVTCVVVDVSHEDPEVKFNWYVDGVEVHNAKTKPREEQYNSTYRVVSVLTVLHQDWLNGKEYKCKVSNKALPAPIEKTISKAKGQPREPQVYTLPPSREEMTKNQVSLSCAVKGFYPSDIAVEWESNGQPENNYKTTPPVLDSDGSFFLVSKLTVDKSRWQQGNVFSCSVMHEALHNRFTQKSLSLSPG light: EIVLTQSPATLSLSPGERATLSCRASSSVSYMHWYQQKPGQAPRPWIYATSNLASGIPARFSGSRSGTDYTLTISSLEPEDFAVYYCQQWSSNTLTFGGGTKVEIKRTVAAPSVFIFPPSDEQLKSGTASVVCLLNNFYPREAKVQWKVDNALQSGNSQESVTEQDSKDSTYSLSSTLTLSKADYEKHKVYACEVTHQGLSSPVTKSFNRGEC
4 | – | binds | binds | Ly2434 (bispecific antibody, human IgG1, kappa, B7H3 Fabs x terminal CD40 Fv (TM559)) heavy 1: QVQLVQSGAEVKKPGASVKVSCKASGYTFTSYVMHWVRQKPGQGLEWIGYINPYNEGTESTDKFKGRATMTSDKSTSTVYMELSSLRSEDTAVYYCASIYYGYEGTYFGVWGQGTLVTVSSASTKGPSVFPLAPSSKSTSGGTAALGCLVKDYFPEPVTVSWNSGALTSGVHTFPAVLQSSGLYSLSSVVTVPSSSLGTQTYICNVNHKPSNTKVDKKVEPKSCDKTHTCPPCPAPEAAGPSVFLFPPKPKDTLMISRTPEVTCVVVDVSHEDPEVKFNWYVDGVEVHNAKTKPREEQYNSTYRVVSVLTVLHQDWLNGKEYKCKVSNKALPAPIEKTISKAKGQPREPQVYTLPPSREEMTKNQVSLWCLVKGFYPSDIAVEWESNGQPENNYKTTPPVLDSDGSFFLYSKLTVDKSRWQQGNVFSCSVMHEALHNHYTQKSLSLSPGGGGGSGGGGSGGGGSGGGGSEVQLVESGGGLVQPGGSLRLSCAASGFTFTNYGLHWVRQAPGKGLEWVSSISPSGGVTYYRDSVKGRFTISRDNSKNTLYLQMNSLRAEDTAVYYCAKPFLGWGGANWIAHWGQGTLVTVSS heavy 2: QVQLVQSGAEVKKPGASVKVSCKASGYTFTSYVMHWVRQKPGQGLEWIGYINPYNEGTESTDKFKGRATMTSDKSTSTVYMELSSLRSEDTAVYYCASIYYGYEGTYFGVWGQGTLVTVSSASTKGPSVFPLAPSSKSTSGGTAALGCLVKDYFPEPVTVSWNSGALTSGVHTFPAVLQSSGLYSLSSVVTVPSSSLGTQTYICNVNHKPSNTKVDKKVEPKSCDKTHTCPPCPAPEAAGPSVFLFPPKPKDTLMISRTPEVTCVVVDVSHEDPEVKFNWYVDGVEVHNAKTKPREEQYNSTYRVVSVLTVLHQDWLNGKEYKCKVSNKALPAPIEKTISKAKGQPREPQVYTLPPSREEMTKNQVSLSCAVKGFYPSDIAVEWESNGQPENNYKTTPPVLDSDGSFFLVSKLTVDKSRWQQGNVFSCSVMHEALHNRFTQKSLSLSPGGGGGSGGGGSGGGGSGGGGSDIQMTQSPSSLSASVGDRVTITCLASEDISNDLAWYQQKPGKAPKLLIYFVDRLLDGVPSRFSGSGSGTDFTLTISSLQPEDFATYYCQQSYKYPPTFGQGTKLEIK light: EIVLTQSPATLSLSPGERATLSCRASSSVSYMHWYQQKPGQAPRPWIYATSNLASGIPARFSGSRSGTDYTLTISSLEPEDFAVYYCQQWSSNTLTFGGGTKVEIKRTVAAPSVFIFPPSDEQLKSGTASVVCLLNNFYPREAKVQWKVDNALQSGNSQESVTEQDSKDSTYSLSSTLTLSKADYEKHKVYACEVTHQGLSSPVTKSFNRGEC
